According to patent publication US20090318350A1, “PAN-HER ANTAGONISTS AND METHODS OF USE” (priority 2006, published 2009):
Like-named read-outs stand apart in the source and are kept apart here.

Tests used:
[1] = test system: HER5 cells; settings: cited from earlier work; for stimulation of cell proliferation in EGFR-dependent HER5 cells: isolated ligand variants, previously demonstrated
[2] = test system: MCF-7 cells; settings: cited from earlier work
[3] = target: T1, EGFR (Homo sapiens, UniProt P00533); test: Phage ELISA whole-cell binding, A431 cells; settings: for Calculated binding (EC50): A431 whole cell suspension, Abs450, Table 10; for Calculated binding (EC50) / ligand binding, from the binding curves: phage-displayed ligand; for Calculated binding (EC50) in A431 cells / binding properties relative to WVS and WVS-R41DL47G: phage fusion; for binding properties relative to WVS and WVS-R41DL47G / ligand binding, from the binding curves: A431 cells
T1 construct: host or cells: A431 human epidermoid carcinoma cells, whole-cell suspension
Protocol: A431 cells for EGFR binding or T47D cells for HER3 binding were grown as monolayers in tissue culture flasks in media containing fetal bovine serum. Cells were trypsinized, neutralized with growth medium, washed twice with DPBS and resuspended in ice-cold PBS-Glu-T. 105 cells were transferred to 96 well plates and incubated on ice for 1 hour in the presence of varied concentrations of phage. Cells were centrifuged and washed 5× with PBS-T then incubated for one hour at room temperature with anti-M13 pVIII coat protein antibody conjugated with horseradish peroxidase (HRP). Cells again centrifuged and washed 5× with PGS-T. Color developed with TMP followed by H2SO4. Cells pelleted and supernatant transferred to optically transparent plate for measurement of absorbance at 450 nm. […]
The human epidermoid carcinoma line, A431, were obtained from ATCC. Stock cultures of A-431 were propagated in DMEM medium containing 10% fetal bovine serum. A431 cells were used to evaluate EGFR receptor binding.
(§1) The phage fusion ligand variants were then evaluated for binding using the assay described herein in both A431 cells (to investigate EGFR binding) and T47D cells (to investigate HER3 receptor binding) and EC50s were calculated.

[4] = target: T2, Her-3 (Homo sapiens, UniProt P21860); test: Phage ELISA whole-cell binding, T47D cells; parameters: host or cells: T47D human ductal carcinoma cells, whole-cell suspension; settings: for Calculated binding (EC50) in T47D cells / binding properties relative to WVS and WVS-R41DL47G: phage fusion
T2 sequence (P21860 20-1342): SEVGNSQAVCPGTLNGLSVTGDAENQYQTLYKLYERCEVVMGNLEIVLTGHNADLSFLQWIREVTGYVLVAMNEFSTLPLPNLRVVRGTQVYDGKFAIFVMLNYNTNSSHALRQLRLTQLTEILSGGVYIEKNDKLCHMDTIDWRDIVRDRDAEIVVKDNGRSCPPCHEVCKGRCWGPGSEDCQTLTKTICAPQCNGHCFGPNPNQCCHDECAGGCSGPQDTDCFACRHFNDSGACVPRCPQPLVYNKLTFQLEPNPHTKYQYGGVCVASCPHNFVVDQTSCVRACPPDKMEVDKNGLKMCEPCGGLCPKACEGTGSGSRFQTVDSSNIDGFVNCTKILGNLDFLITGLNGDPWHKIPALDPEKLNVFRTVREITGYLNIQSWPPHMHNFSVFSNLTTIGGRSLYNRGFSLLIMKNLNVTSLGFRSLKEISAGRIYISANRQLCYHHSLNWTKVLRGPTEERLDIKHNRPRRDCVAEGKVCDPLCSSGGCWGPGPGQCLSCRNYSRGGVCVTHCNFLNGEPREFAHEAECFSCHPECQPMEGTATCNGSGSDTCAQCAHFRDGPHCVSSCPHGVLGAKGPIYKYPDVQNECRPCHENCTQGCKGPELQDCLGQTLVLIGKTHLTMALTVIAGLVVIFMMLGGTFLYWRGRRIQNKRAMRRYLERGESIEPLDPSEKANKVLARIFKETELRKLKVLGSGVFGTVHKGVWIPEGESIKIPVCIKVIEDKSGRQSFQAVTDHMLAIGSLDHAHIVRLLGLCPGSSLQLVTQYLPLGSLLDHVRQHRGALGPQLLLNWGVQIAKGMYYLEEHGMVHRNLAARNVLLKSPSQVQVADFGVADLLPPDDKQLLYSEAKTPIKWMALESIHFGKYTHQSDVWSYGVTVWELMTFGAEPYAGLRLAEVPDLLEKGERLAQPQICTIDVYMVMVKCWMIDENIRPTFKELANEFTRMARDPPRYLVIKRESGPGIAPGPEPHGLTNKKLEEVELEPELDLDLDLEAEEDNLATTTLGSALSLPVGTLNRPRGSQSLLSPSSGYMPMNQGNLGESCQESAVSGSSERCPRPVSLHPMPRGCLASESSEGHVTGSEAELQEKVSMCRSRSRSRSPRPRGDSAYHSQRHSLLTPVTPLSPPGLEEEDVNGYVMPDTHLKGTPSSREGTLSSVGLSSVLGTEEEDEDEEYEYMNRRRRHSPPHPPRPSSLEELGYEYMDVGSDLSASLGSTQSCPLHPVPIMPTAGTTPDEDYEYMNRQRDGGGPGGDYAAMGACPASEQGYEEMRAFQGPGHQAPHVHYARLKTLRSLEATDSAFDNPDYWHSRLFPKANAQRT
Protocol: (§2) A431 cells for EGFR binding or T47D cells for HER3 binding were grown as monolayers in tissue culture flasks in media containing fetal bovine serum. Cells were trypsinized, neutralized with growth medium, washed twice with DPBS and resuspended in ice-cold PBS-Glu-T. 105 cells were transferred to 96 well plates and incubated on ice for 1 hour in the presence of varied concentrations of phage. Cells were centrifuged and washed 5× with PBS-T then incubated for one hour at room temperature with anti-M13 pVIII coat protein antibody conjugated with horseradish peroxidase (HRP). Cells again centrifuged and washed 5× with PGS-T. Color developed with TMP followed by H2SO4. Cells pelleted and supernatant transferred to optically transparent plate for measurement of absorbance at 450 nm.
(§3) Theoretical estimates were also performed. “N.D.” indicates not determined. […]
(§4) Human ductal carcinoma cells were obtained from ATCC. They were maintained in RPMI 1640 medium with 2 mM L-glutamine adjusted to contain 1.5 g/L sodium bicarbonate, 4.5 g/L glucose, 10 mM HEPES, and 1.0 mM sodium pyruvate and supplemented with 0.2 Units/ml bovine insulin, 90%; fetal bovine serum, 10%. T47-D cells were used to evaluate HER3 receptor binding.
as §1

[5] = target: T2, Her-3; settings: particularly for Her-3; cited from earlier work
[6] = test system: HER3 receptor; test: Phage ELISA whole-cell binding, T47D cells; parameters: species or system human; settings: A431 (EGFR) versus T47D (HER3) binding, phage fusion
Protocol: as §2, §3
as §4, with “T47-D cells were used to evaluate HER3 receptor binding.” left out
as §1

[7] = isolated ligand variants, previously demonstrated
[8] = T47D whole cell suspension, phage-displayed ligand, Abs450

Calculated binding (EC50) [3] | Estimated binding (EC50) [4, 8] | Calculated binding (EC50) in A431 cells ([3]; Table 14, first half loop) | Calculated binding (EC50) in A431 cells ([3]; Table 15, second half loop) | Calculated binding (EC50) in T47D cells ([4]; Table 14, first half loop) | Calculated binding (EC50) in T47D cells ([4]; Table 15, second half loop) | Substance | stimulation of cell proliferation in EGFR-dependent HER5 cells [1] | further results
 |  |  |  |  |  | BiR: heregulin/EGF chimera, amino terminal residues NSDSE replaced with heregulin SHLVK; SEQ ID NO 2 (SHLVKCPLSHDGYCLHDGVCMYIEALDKYACNCVVGYIGERCQYRDLKWWELR; Ligand Variant) | capable of stimulating cell proliferation | stimulation of HER5 cells ([1]; stated as known): can be stimulated; stimulation of MCF-7 cells [2, 7]: very weakly; stimulation of MCF-7 cells ([2]; stated as known): can be stimulated
6.6 × 10^10 phage titer/mL |  |  |  |  |  | wvs-L47G: WVS background, L at position 47 replaced by G; SEQ ID NO 7 (NWVSECPLSHDGYCLHDGVCMYIEALDKYACNCVVGYIGERCQYRDGKWWELR; Ligand Variant) |  | 
 | 1 × 10^10 phage titer/mL |  |  |  |  | T1E: EGF/TGFα chimera, amino terminal residues NSDSE replaced with VVSHFND from TGF-α; SEQ ID NO 4 (VVSHFNDCPLSHDGYCLHDGVCMYIEALDKYACNCVVGYIGERCQYRDLKWWELR; Ligand Variant) [reference compound] | capable of stimulating cell proliferation | 
6.6 × 10^8 phage titer/mL | 9 × 10^8 phage titer/mL | 1.9 × 10^9 phage titer/mL | 1.4 × 10^9 phage titer/mL | 7.5 × 10^9 phage titer/mL | 7.6 × 10^9 phage titer/mL | WVS: EGF variant, amino acids 2 and 3 replaced with W and V, N-terminus NWVSE; SEQ ID NO 3 (NWVSECPLSHDGYCLHDGVCMYIEALDKYACNCVVGYIGERCQYRDLKWWELR; Ligand Variant) [reference compound] | capable of stimulating cell proliferation | binding affinity [5]: high binding affinity; Calculated binding (EC50) ([4]; T47D whole cell suspension, phage-displayed ligand, Abs450, Table 9): 9.8 × 10^9 phage titer/mL; stimulation of MCF-7 cells [2, 7]: stimulated most effectively
 |  | 3.6 × 10^10 phage titer/mL |  | 8.6 × 10^10 phage titer/mL |  | D4-2: WVS background, B-loop YRVKTLDKYA (first half YRVKT); SEQ ID 43 (Ligand Variant) |  | receptor binding selectivity [6]: bind only the HER3 receptor
 |  |  | 5.2 × 10^9 phage titer/mL |  | 3.1 × 10^10 phage titer/mL | E8: WVS background, B-loop MYIEATKYRG (second half TKYRG); SEQ ID 44 (Ligand Variant) |  | binding properties relative to WVS and WVS-R41DL47G [3]: intermediate binding properties; binding properties relative to WVS and WVS-R41DL47G ([4]; T47D cells): intermediate binding properties
5.8 × 10^11 phage titer/mL | >1 × 10^12 phage titer/mL |  |  |  |  | wvs-R41D: WVS background, R at position 41 replaced by D; SEQ ID NO 6 (NWVSECPLSHDGYCLHDGVCMYIEALDKYACNCVVGYIGEDCQYRDLKWWELR; Ligand Variant) |  | ligand binding, from the binding curves [3]: greatly attenuated
 |  |  | 3.9 × 10^9 phage titer/mL |  | 2.9 × 10^10 phage titer/mL | D4: WVS background, B-loop MYIEAYRVKT (second half YRVKT); SEQ ID 42 (Ligand Variant) |  | binding properties relative to WVS and WVS-R41DL47G [3]: intermediate binding properties; binding properties relative to WVS and WVS-R41DL47G ([4]; T47D cells): intermediate binding properties
4.8 × 10^12 phage titer/mL |  | 2.8 × 10^10 phage titer/mL | 4.0 × 10^10 phage titer/mL | 1.1 × 10^12 phage titer/mL | 2.6 × 10^11 phage titer/mL | wvs-R41DL47G: WVS background, R at position 41 replaced by D, L at position 47 replaced by G; SEQ ID NO 5 (NWVSECPLSHDGYCLHDGVCMYIEALDKYACNCVVGYIGEDCQYRDGKWWELR; Ligand Variant) |  | ligand binding, from the binding curves [3]: greatly attenuated; ligand binding, from the binding curves ([4]; T47D cells, phage-displayed ligand): greatly attenuated
